± gives the uncertainty stated by the source.
B1: SAM and SH3 domain-containing protein 1, residues 630 to 700; numbered along this chain, O94885 (parent)
chain: GRPPQPKSVEDLLDRINLKEHMPTFLFNGYEDLDTFKLLEEEDLDELNIRDPEHRAVLLTAVELLQEYDSN

Variants of: B1
Assay: abundance fitness (aPCA) (normalised: wild type 0, dead -1); higher = more abundant; growth selection in yeast, the domain comes from the species named
Details: Homo sapiens
Variant L47D has an abundance fitness of -0.828 ± 0.073.
For L47A, the abundance fitness was -0.698 ± 0.053.
For L47Q, the abundance fitness was -0.805 ± 0.092.
L65E gave an abundance fitness of -0.758 ± 0.097.
L65C gave an abundance fitness of -0.538 ± 0.07.
With L65R the abundance fitness was -0.82 ± 0.064.
For L65N, the abundance fitness was -0.841 ± 0.082.
Work on L65W yielded an abundance fitness of -0.959 ± 0.097.
L39N gave an abundance fitness of -0.851 ± 0.075.
In the case of L39S, the abundance fitness is reported as -0.818 ± 0.053.
L39H gave an abundance fitness of -0.812 ± 0.072.
L39V showed an abundance fitness of -0.422 ± 0.049.
L39R gave an abundance fitness of -0.861 ± 0.059.
L39G gave an abundance fitness of -0.812 ± 0.067.
G29Y gave an abundance fitness of -0.895 ± 0.1.
With G29Q the abundance fitness was -0.959 ± 0.093.
For G29I, the abundance fitness was -0.893 ± 0.1.
G29V gave an abundance fitness of -1.17 ± 0.089.
Work on G29A yielded an abundance fitness of -0.806 ± 0.062.
G29M gave an abundance fitness of -0.739 ± 0.089.
In the case of G29F, the abundance fitness is reported as -1.2 ± 0.14.
G29C showed an abundance fitness of -1.12 ± 0.13.
For R2P, the abundance fitness was -0.632 ± 0.091.
R2K showed an abundance fitness of -0.212 ± 0.05.
R2T showed an abundance fitness of -0.239 ± 0.048.
For R2Y, the abundance fitness was -0.317 ± 0.069.
Variant L18G has an abundance fitness of -0.89 ± 0.064.
With L18P the abundance fitness was -0.996 ± 0.085.
L18K showed an abundance fitness of -0.77 ± 0.077.
L18Y showed an abundance fitness of -0.863 ± 0.089.
With L18I the abundance fitness was -0.716 ± 0.077.
With L18C the abundance fitness was -0.523 ± 0.066.
L18N gave an abundance fitness of -0.777 ± 0.081.
D34T gave an abundance fitness of -0.415 ± 0.043.
D34L gave an abundance fitness of -0.67 ± 0.045.
With D34S the abundance fitness was -0.158 ± 0.035.
In the case of D34Q, the abundance fitness is reported as -0.116 ± 0.048.
D34R gave an abundance fitness of -0.465 ± 0.045.
Variant D34H has an abundance fitness of -0.426 ± 0.049.
Work on D34I yielded an abundance fitness of -0.793 ± 0.067.
K7V gave an abundance fitness of -0.126 ± 0.043.
In the case of K7M, the abundance fitness is reported as -0.309 ± 0.066.
K7L showed an abundance fitness of -0.323 ± 0.041.
Variant K7D has an abundance fitness of -0.213 ± 0.06.
In the case of K7C, the abundance fitness is reported as -0.533 ± 0.066.
For K7H, the abundance fitness was -0.308 ± 0.047.
P4R gave an abundance fitness of -0.198 ± 0.057.
In the case of P4A, the abundance fitness is reported as 0.046 ± 0.051.
In the case of P4Q, the abundance fitness is reported as 0.159 ± 0.056.
Work on P4M yielded an abundance fitness of 0.078 ± 0.059.
For R50G, the abundance fitness was -0.371 ± 0.05.
R50N gave an abundance fitness of -0.027 ± 0.046.
R50F gave an abundance fitness of -0.071 ± 0.049.
Work on R50Y yielded an abundance fitness of -0.012 ± 0.047.
For R15F, the abundance fitness was -0.286 ± 0.053.
Work on R15C yielded an abundance fitness of -0.374 ± 0.059.
Variant R15I has an abundance fitness of -0.23 ± 0.051.
For R15L, the abundance fitness was -0.223 ± 0.037.
For E31Y, the abundance fitness was -0.124 ± 0.042.
E31Q showed an abundance fitness of 0.029 ± 0.044.
With E31G the abundance fitness was 0.313 ± 0.035.
For E31M, the abundance fitness was -0.158 ± 0.046.
Work on E31H yielded an abundance fitness of 0.195 ± 0.038.
E31R gave an abundance fitness of 0.127 ± 0.032.
Work on M22E yielded an abundance fitness of -0.213 ± 0.054.
With M22I the abundance fitness was 0.131 ± 0.039.
M22N gave an abundance fitness of -0.503 ± 0.056.
For M22R, the abundance fitness was -0.612 ± 0.046.
In the case of M22G, the abundance fitness is reported as -0.346 ± 0.042.
With M22F the abundance fitness was 0.081 ± 0.043.
F27Q showed an abundance fitness of 0.393 ± 0.043.
Variant F27R has an abundance fitness of 0.38 ± 0.033.
Variant F27S has an abundance fitness of 0.406 ± 0.032.
F27H showed an abundance fitness of 0.246 ± 0.042.
With L13Q the abundance fitness was -0.447 ± 0.081.
For L13T, the abundance fitness was -0.861 ± 0.077.
Work on L13V yielded an abundance fitness of -1 ± 0.085.
In the case of L13F, the abundance fitness is reported as -0.576 ± 0.071.
With L13K the abundance fitness was -0.715 ± 0.08.
For L13C, the abundance fitness was -0.946 ± 0.1.
Work on D32E yielded an abundance fitness of -0.275 ± 0.055.
With D32A the abundance fitness was -0.579 ± 0.056.
For D32F, the abundance fitness was -0.803 ± 0.092.
